Changes are numbered by the printed parent chain. In names and notes the source's numbering stands.
T1: Calypso(L340A)^43–404, as in the Calypso(L340A)–ASX complex (Drosophila melanogaster, UniProt Q7K5N4 43-404, L340A)
T1 construct: Calypso, Drosophila, residues 43-404, L340A; Handled together with ASX 207-340; source: E. coli BL21 (DE3), co-expressed with ASX, purified (Ni-NTA, 3C cleavage, HiTrap Q, Superdex 200); not shown: His6, N-terminal, cleaved
T1 sequence (looked up): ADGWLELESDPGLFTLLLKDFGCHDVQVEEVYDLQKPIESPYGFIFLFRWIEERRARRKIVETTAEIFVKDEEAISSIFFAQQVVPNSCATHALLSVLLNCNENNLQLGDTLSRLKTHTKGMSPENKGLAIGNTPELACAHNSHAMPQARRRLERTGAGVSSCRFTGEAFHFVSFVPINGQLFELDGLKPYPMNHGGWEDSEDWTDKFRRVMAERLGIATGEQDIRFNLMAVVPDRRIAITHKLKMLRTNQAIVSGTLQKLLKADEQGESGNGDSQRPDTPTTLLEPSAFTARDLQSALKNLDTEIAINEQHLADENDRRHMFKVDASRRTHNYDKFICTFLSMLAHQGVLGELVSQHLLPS

T2: Calypso(N292R)^43–404, as in the Calypso(N292R)–ASX complex (Drosophila melanogaster, UniProt Q7K5N4 43-404, N292R)
T2 construct: Calypso, Drosophila, residues 43-404, N292R; Handled together with ASX 207-340; source: E. coli BL21 (DE3), co-expressed with ASX, purified (Ni-NTA, 3C cleavage, HiTrap Q, Superdex 200); not shown: His6, N-terminal, cleaved
T2 sequence (looked up): T1 sequence (looked up) with N250R, A298L

B1: Calypso^43–404 (wild type), as in the Calypso^43–404–ASX^207–340 complex (enzyme, Drosophila melanogaster, UniProt Q7K5N4 43-404, looked up)
chain: T1 sequence (looked up) with A298L
notes: Calypso, deubiquitinase of the Drosophila PR-DUB, residues 43-404 (UCH domain, coiled-coil hairpin, ULD; lacks the C-terminal positively charged tail 405-471); Always handled together with ASX 207-340, with which it was co-expressed; two copies per 2:2 complex at high concentration; also called WT^(no tail); Calypso^(no tail); source: E. coli BL21 (DE3), co-expressed with ASX, purified …
B2: ASX^207–340 (Deubad domain of Additional Sex Combs), as in the Calypso^43–404–ASX^207–340 complex (domain or fragment, Drosophila melanogaster, UniProt Q9V727 207-340, looked up)
chain: DGKIDLETPDSILASTNLRALLNKQTFSLLPPLYQYNLIQLLPSVDREASESEAIRLSASCLNNEFFARACLEWRERLSEGEFTPENQLKLKTEAEREKNKLDPWKLKHFEPFWGEKNSRG
notes: Additional Sex Combs (ASX), Drosophila, Deubad domain, residues 207-340 with residues 258-270 omitted; Second open reading frame of the co-expression construct; also called ASX Deubad; source: E. coli BL21 (DE3), co-expressed with His6-Calypso, purified (Ni-NTA, HiTrap Q, Superdex 200)
B3: Calypso(M288R)^43–404, as in the Calypso(M288R)–ASX complex (enzyme, Drosophila melanogaster, UniProt Q7K5N4 43-404, looked up)
chain: T1 sequence (looked up) with M246R, A298L
notes: Calypso, Drosophila, residues 43-404, M288R; Handled together with ASX 207-340; source: E. coli BL21 (DE3), co-expressed with ASX, purified (Ni-NTA, 3C cleavage, HiTrap Q, Superdex 200); not shown: His6, N-terminal, cleaved

Experiments:
[1] = target: the molecule itself; assay: AUC; sedimentation velocity, c(s) analysis, 40 µM complex, 20 °C, 20 mM HEPES pH 7.8, 100 mM NaCl, 0.8 mM TCEP, 50,000 r.p.m.
[2] = target: B1; assay: as above; conditions: both partners purified
[3] = target: T1, Calypso(L340A)^43–404, as in the …; assay: SEC-MALLS; Superdex 200 5/150 GL Increase, 20 mM HEPES pH 7.5, 100 mM NaCl; wild type injected at 90 and 45 μM, wild type and mutants at ~50 μM; conditions: both partners purified
[4] = target: T2, Calypso(N292R)^43–404, as in the …; assay: as above; conditions: both partners purified
[5] = target: the molecule itself; assay: as above

In the case of B1, the “stoichiometry N” value [1] is reported as 2.

B2 was tested, and the “stoichiometry N” value [2] was 1 ASX per Calypso (2:2), the “stoichiometry N” value [3] was 1 ASX per Calypso (1:1) and the “stoichiometry N” value [4] was 1 ASX per Calypso (1:1).

B3: binds [5].

Source: PMC6158172, “A bidentate Polycomb Repressive-Deubiquitinase complex is required for efficient activity on nucleosomes” (Nature Communications, 2018)
